The test system of one series is hammerhead ribozyme. The note with it: retina of nude mice, toyocamycin drug pellet under dorsal skin, ribozyme-based sensor; cited from earlier work.
Series [1] has as its system luciferase reporter gene expression. Nature of the series: Luciferase reporter assay of tetracycline-aptamer polyA switch constructs with and without tc. The format is cell-based, human. From the text: The general strategy for detecting and imaging proteins via modulation of polyA cleavage is critically dependent upon the highly efficient cleavage of the polyA signal at the 5′ UTR (FIG. 1). A first step was to test candidate polyA signals and associated upstream and downstream motifs that enable efficient polyA cleavage in cells. For testing polyA cleavage efficiency, a transient transfection assay involving a mammalian expression vector^49 was used with a GFP or luciferase reporter (merely as examples). Candidate polyA signal sequences were cloned at the 5′UTR of the reporter gene or transgene within the expression vector.
On the technique in general: In a reporter assay the amount or activity of a reporter protein is the signal.

Consider four molecules from patent publication US12215323B2, “Exogenous control of mammalian gene expression through aptamer-mediated modulation of polyadenylation” (Baylor College of Medicine, priority 2015, dated 2025).

As to `N#Cc1cn([C@@H]2O[C@H](CO)[C@@H](O)[C@H]2O)c2ncnc(N)c12` [toyocamycin], the “induced luciferase reporter expression” value with hammerhead ribozyme is “up to 180 fold”.

B1: GP2SLGP2: two GP2 aptamers connected back to back (Helper and Center); SEQ ID NO: 59 (nucleic acid)
chain: GCTAGCCACACACACAAATCTGGGGAGGTGAAGAATACGACCACCTGCGTTTTATACTTTGTTAAAACATACCAGATCGAAAGATCTGGGGAGGTGAAGAATACGACCACCTAATAAAGTATAAAGTGCAAAACATACCAGATCTGTGTGTTGGTTTTTTGTGTGGAATTCCACACACACAAATCTGGGGAGGTGAAGAATACGACCACCTGCGTTTTATACTTTGTTAAAACATACCAGATCGAAAGATCTGGGGAGGTGAAGAATACGACCACCTAATAAAGTATAAAGTGCAAAACATACCAGATCTGTGTGTTGGTTTTTTGTGTGAACGGGGGAGGGGGAGGAAAGGGGGAGGGGGAGCGGCCGC
modifications: Synthetic Primerr
Turning to B1, the “induction (fold), ratio of luciferase activity with and without Tc” value (shortened to “induction (fold), ratio … with and without Tc”) came to 70 fold in series [1] (5 μg/mL Tc) and 104 fold in series [1] (15 μg/mL Tc).

B2: D11A: GP2SLGP2 variant in stem/loop-II region; SEQ ID NO: 61 (nucleic acid)
chain: GCTAGCGAATTGCACACACACAAATCTGGGGAGGTGAAGAATACGACCACCTGCGTTTTATACTTTGTTAAAACATACCATCCTAAGCCTAAGGCAAACGCTATGGTATGGATGGGGAGGTGAAGAATACGACCACCTAATAAAGTATAAAGTGCAAAACATACCAGATCTGTGTGTTGGTTTTTTGTGTGGAATTCCACACACACAAATCTGGGGAGGTGAAGAATACGACCACCTGCGTTTTATACTTTGTTAAAACATACCAGATCGAAAGATCTGGGGAGGTGAAGAATACGACCACCTAATAAAGTATAAAGTGCAAAACATACCAGATCTGTGTGTTGGTTTTTTGTGTGAACGGGGGAGGGGGAGGAAAGGGGGAGGGGGAGCGGCCGC
modifications: Synthetic Primer
With B2, the “induction (fold), ratio … with and without Tc” value in series [1] (5 μg/mL Tc) was 84 fold; in series [1] (15 μg/mL Tc), 127 fold.

B3: C12: GP2SLGP2 variant in stem/loop-II region, central stem equivalent length 20 bp; SEQ ID NO: 60 (nucleic acid)
chain: CTGCAGCACACACACAAATCTGGGGAGGTGAAGAATACGACCACCTGCGTTTTATACTTTGTTAAAACATACCAGATCGAATTCGATCTGGGGAGGTGAAGAATACGACCACCTAATAAAGTATAAAGTGCAAAACATACCAGATCTGTGTGTTGGTTTTTTGTGTGGCTAGCCACACACACAAATCTGGGGAGGTGAAGAATACGACCACCTGCGTTTTATACTTTGTTAAAACATACCAGATCGAATTCGATCTGGGGAGGTGAAGAATACGACCACCTAATAAAGTATAAAGTGCAAAACATACCAGATCTGTGTGTTGGTTTTTTGTGTGAACGGGGGAGGGGGAGGAAAGGGGGAGGGGGAGCGGCCGC
modifications: Synthetic Primer
Consider B3, for which the “induction (fold), ratio … with and without Tc” value in series [1] (5 μg/mL Tc) is recorded as 94 fold; in series [1] (15 μg/mL Tc), 151 fold.
